The source of these data is the supplement of paper PMC9112550, “Optimization of the antimicrobial peptide Bac7 by deep mutational scanning” (BMC Biology, 2022).
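Also: peptides expressed intracellularly from a pBAD plasmid library in pooled LB shake-flask culture, induced with 0.3% L-arabinose, DNA abundance read by NGS, three biological replicates, DESeq2 with apeglm shrinkage.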

This series has as its system Escherichia coli TOP10. As to the kind of experiment: shrunken log2 fold change of peptide-encoding DNA abundance (4.5 h post-induction vs induction); higher = less antimicrobial activity (less host growth inhibition). The conditions noted are these: time post-induction: 4.5 h; library: site-saturation at positions 5, 18, 19, 20.
With RRIRPRPPRLPRPRPRPTFPPRP, the “shrunken log2 fold change” value came to 0.025. Then RRIRSRPPRLPRPRPRPFIYPRP, with -0.82; and RRIRPRPPRLPRPRPRPAFNPRP, with -0.0727. The figure for RRIRTRPPRLPRPRPRPCSCPRP is -0.0701; for RRIRGRPPRLPRPRPRPDSLPRP it is -0.0456; for RRIRNRPPRLPRPRPRPPLFPRP it is 0.00419. Then RRIRARPPRLPRPRPRPIWPPRP, with 0.353. For the sequence RRIRPRPPRLPRPRPRPCVRPRP, the “shrunken log2 fold change” value worked out at 0.14. Then RRIRYRPPRLPRPRPRPTDEPRP, with -0.00133; and RRIRRRPPRLPRPRPRPQFMPRP, with -0.139; and RRIRDRPPRLPRPRPRPKSYPRP, with 0.0134. On to RRIRMRPPRLPRPRPRPTICPRP, for which the “shrunken log2 fold change” value was determined as 0.0136. On to RRIRDRPPRLPRPRPRPRTMPRP, for which the “shrunken log2 fold change” value is -0.0423. The figure for RRIRDRPPRLPRPRPRPKYMPRP is -0.326; for RRIRARPPRLPRPRPRPLILPRP it is -0.252. Then RRIRSRPPRLPRPRPRPVDFPRP, with -0.0272; and RRIRRRPPRLPRPRPRPYFTPRP, with -0.432; and RRIRRRPPRLPRPRPRPPLNPRP, with 0.696. The figure for RRIRERPPRLPRPRPRPFPFPRP is -0.629; for RRIRIRPPRLPRPRPRPWINPRP it is -0.379. Take RRIRKRPPRLPRPRPRPWNTPRP: the “shrunken log2 fold change” value was -0.332.

Consider RRIRERPPRLPRPRPRPRKMPRP, for which the “shrunken log2 fold change” value was -0.0569.

Regarding RRIRRRPPRLPRPRPRPLNCPRP, the “shrunken log2 fold change” value is -0.304. The figure for RRIRPRPPRLPRPRPRPGYDPRP is -0.0887; for RRIRERPPRLPRPRPRPVFTPRP it is -0.541. The figure for RRIRGRPPRLPRPRPRPCTHPRP is -0.0414. Then RRIRLRPPRLPRPRPRPNIIPRP, with -0.313. As for RRIRRRPPRLPRPRPRPGTYPRP, the “shrunken log2 fold change” value is -0.0906. Then RRIRGRPPRLPRPRPRPQASPRP, with 1.03. The figure for RRIRKRPPRLPRPRPRPFNWPRP is 0.00115.

Turning to RRIRNRPPRLPRPRPRPAQSPRP, the “shrunken log2 fold change” value stood at 0.0508. Then RRIRCRPPRLPRPRPRPIQLPRP, with -0.0847; and RRIRKRPPRLPRPRPRPFDCPRP, with -0.128; and RRIRERPPRLPRPRPRPSTHPRP, with -0.663. The figure for RRIRHRPPRLPRPRPRPNHVPRP is -0.0341. Then RRIRVRPPRLPRPRPRPWMMPRP, with -0.0912; and RRIRRRPPRLPRPRPRPYQKPRP, with -0.458; and RRIRIRPPRLPRPRPRPYLFPRP, with -0.376.

On to RRIRFRPPRLPRPRPRPAMVPRP, for which the “shrunken log2 fold change” value is -0.149. The figure for RRIRMRPPRLPRPRPRPTVKPRP is -0.0616. For RRIRARPPRLPRPRPRPFYIPRP, the “shrunken log2 fold change” value was -0.309.

In the case of RRIRSRPPRLPRPRPRPEHWPRP, the “shrunken log2 fold change” value worked out at 0.422. Then RRIRNRPPRLPRPRPRPIEDPRP, with -0.0858; and RRIRPRPPRLPRPRPRPVVAPRP, with 0.578; and RRIRWRPPRLPRPRPRPYTTPRP, with -0.537.

In the case of RRIRNRPPRLPRPRPRPLLWPRP, the “shrunken log2 fold change” value is 0.369.

As for RRIRERPPRLPRPRPRPELEPRP, the “shrunken log2 fold change” value stood at 0.276. Then RRIRDRPPRLPRPRPRPLLYPRP, with 0.116; and RRIRRRPPRLPRPRPRPSQNPRP, with 0.0754; and RRIRCRPPRLPRPRPRPDEQPRP, with -0.00573. Then RRIRFRPPRLPRPRPRPHSWPRP, with -0.0147; and RRIRNRPPRLPRPRPRPQAVPRP, with -0.0343. Then RRIRGRPPRLPRPRPRPNWNPRP, with -0.00809; and RRIRFRPPRLPRPRPRPRCYPRP, with -0.473. On to RRIRLRPPRLPRPRPRPESRPRP, for which the “shrunken log2 fold change” value was 0.0418. Then RRIRMRPPRLPRPRPRPHDIPRP, with -0.104.

Take RRIRCRPPRLPRPRPRPKVFPRP: the “shrunken log2 fold change” value is 0.0792. Then RRIRQRPPRLPRPRPRPQWWPRP, with 0.0549. Then RRIRPRPPRLPRPRPRPWCHPRP, with -0.563; and RRIRVRPPRLPRPRPRPEKFPRP, with -0.208.

As to RRIRFRPPRLPRPRPRPGMLPRP, the “shrunken log2 fold change” value is -0.169. The figure for RRIRQRPPRLPRPRPRPGEKPRP is 0.139. Then RRIRNRPPRLPRPRPRPTTYPRP, with -0.228. Then RRIRIRPPRLPRPRPRPESFPRP, with -0.0048. Take RRIRHRPPRLPRPRPRPHQRPRP: the “shrunken log2 fold change” value was 0.0129. Consider RRIRFRPPRLPRPRPRPNNWPRP, for which the “shrunken log2 fold change” value was -0.369. The figure for RRIRCRPPRLPRPRPRPHTSPRP is -0.498; for RRIRGRPPRLPRPRPRPRPYPRP it is 0.246; for RRIRSRPPRLPRPRPRPFQAPRP it is 0.0408. Then RRIRFRPPRLPRPRPRPKWKPRP, with -0.0366; and RRIRPRPPRLPRPRPRPNPEPRP, with -0.0226.

Take RRIRFRPPRLPRPRPRPPPEPRP: the “shrunken log2 fold change” value is 1.28. Then RRIRKRPPRLPRPRPRPETIPRP, with 0.0906. Then RRIRVRPPRLPRPRPRPFGEPRP, with 0.092; and RRIRGRPPRLPRPRPRPNRMPRP, with -0.00965; and RRIRLRPPRLPRPRPRPINHPRP, with -0.654. Regarding RRIRRRPPRLPRPRPRPIECPRP, the “shrunken log2 fold change” value was -0.00663.

RRIRQRPPRLPRPRPRPIAEPRP: the “shrunken log2 fold change” value is -0.103. In the case of RRIRWRPPRLPRPRPRPHWAPRP, the “shrunken log2 fold change” value is -0.102. Regarding RRIRKRPPRLPRPRPRPCWPPRP, the “shrunken log2 fold change” value stood at 0.0513. Then RRIRARPPRLPRPRPRPYKVPRP, with -0.00867; and RRIRCRPPRLPRPRPRPDDQPRP, with 0.23. Then RRIRTRPPRLPRPRPRPDEIPRP, with -0.235; and RRIRIRPPRLPRPRPRPSQDPRP, with -0.31.

For RRIRCRPPRLPRPRPRPQFWPRP, the “shrunken log2 fold change” value stood at 0.303.

Turning to RRIRHRPPRLPRPRPRPYSVPRP, the “shrunken log2 fold change” value is -0.481. Then RRIRGRPPRLPRPRPRPWAFPRP, with 0.488; and RRIRARPPRLPRPRPRPHKNPRP, with 0.0543; and RRIRTRPPRLPRPRPRPVETPRP, with 0.306. The figure for RRIRNRPPRLPRPRPRPHAPPRP is 0.0879; for RRIRERPPRLPRPRPRPREMPRP it is 0.203; for RRIRNRPPRLPRPRPRPSNGPRP it is -0.12. In the case of RRIRCRPPRLPRPRPRPINEPRP, the “shrunken log2 fold change” value was -0.116. Then RRIRARPPRLPRPRPRPGGLPRP, with 0.936; and RRIRGRPPRLPRPRPRPGEYPRP, with 0.3. Take RRIRRRPPRLPRPRPRPTVNPRP: the “shrunken log2 fold change” value was 0.15. Then RRIRCRPPRLPRPRPRPGVFPRP, with -0.00263; and RRIRLRPPRLPRPRPRPKNGPRP, with -0.203. Then RRIRHRPPRLPRPRPRPGDEPRP, with -0.492; and RRIRVRPPRLPRPRPRPVDDPRP, with 0.177.

RRIRTRPPRLPRPRPRPEPRPRP: the “shrunken log2 fold change” value was found to be 0.482. The figure for RRIRARPPRLPRPRPRPIQSPRP is -0.035; for RRIRDRPPRLPRPRPRPSSTPRP it is 0.00883; for RRIRKRPPRLPRPRPRPPSVPRP it is 0.282.

On to RRIRVRPPRLPRPRPRPKVMPRP, for which the “shrunken log2 fold change” value is -0.12.

With RRIRLRPPRLPRPRPRPVHIPRP, the “shrunken log2 fold change” value is -0.182. Then RRIRQRPPRLPRPRPRPADDPRP, with -0.01. The figure for RRIRYRPPRLPRPRPRPCADPRP is -0.21; for RRIRFRPPRLPRPRPRPAFEPRP it is 0.226.

As to RRIRIRPPRLPRPRPRPHPTPRP, the “shrunken log2 fold change” value is -0.216.

Take RRIRPRPPRLPRPRPRPHETPRP: the “shrunken log2 fold change” value is -0.164. Then RRIRTRPPRLPRPRPRPIFKPRP, with -0.128; and RRIRVRPPRLPRPRPRPSVGPRP, with -0.659.

Regarding RRIRHRPPRLPRPRPRPNFLPRP, the “shrunken log2 fold change” value was -0.322. Then RRIRQRPPRLPRPRPRPCHCPRP, with -0.00822. The figure for RRIRDRPPRLPRPRPRPPKFPRP is -0.154; for RRIRFRPPRLPRPRPRPASLPRP it is -0.227.

For RRIRSRPPRLPRPRPRPSMYPRP, the “shrunken log2 fold change” value is -0.286. The figure for RRIRGRPPRLPRPRPRPRSEPRP is 0.29. The figure for RRIRPRPPRLPRPRPRPAPKPRP is 0.702; for RRIRDRPPRLPRPRPRPIYSPRP it is -0.15.

RRIRERPPRLPRPRPRPDNDPRP: the “shrunken log2 fold change” value was -0.259.

For RRIRDRPPRLPRPRPRPQGAPRP, the “shrunken log2 fold change” value came to 0.244. For RRIRKRPPRLPRPRPRPVRFPRP, the “shrunken log2 fold change” value was found to be 0.397. The figure for RRIRCRPPRLPRPRPRPNRKPRP is -0.127.
